The source of these data is PMC2825239.

Substrate in this data set: O=C1C[C@@H](c2ccc(O)cc2)Oc2cc(O)cc(O)c21
As to the kind of experiment: cells, lysate or membranes. The conditions noted are these: NADPH 1.0 mM, 0.1 M sodium phosphate pH 7.0, 27°C (general assay conditions).

Broadly, the Km is the concentration of substrate that gives half-maximal velocity.

B1: CYP75A8 (Catharanthus roseus) (protein)
chain: MALEKLVLFDFLAAISILILVQKFIQIVFLRSSSRIRLPPGPKGWPIIGALPYLGTMPHSILANMAKKYGPIMYLKLGTNGMVVASTPDAVKAFLRTLDMNFSNRPIDAGATHLAYNAQDMVFAHYGPKWKLLRKLSNLHMLGGKALENWSNVRATELGYMLQAMYESSRKGETVVVPEMLTYAMANMIGQVILSRRVFVTKSLESNEFKDMVVELMTTAGYFNIGDFIPSIAWMDLQGIERGMKRLHKKFDALLTKMLEEHKSSSHKRKEKPDFLDYVLANRDNSEGERLTTTNIKALLLNLFTAGTDTSSSVIEWAISEMLKNPTILKRAQEEMDQVIGRNRRLMESDIPKLPYLQAICKETFRKHPSTPLNLPRIAQKDCQVNGYYIPKGTRLSVNIWAIGRDPNVWENPLEFNPDRFLSGKMAKIEPRGNDFELIPFGAGRRICAGTRMGIVLVEYILGTLVHSFDWKLPFDDINELNMDESFGLALQKAVPLVAMVSPRLPINAYSP
Take B1: the Km (ATR1 reductase yeast expression system, assay conditions not separately printed) amounted to 0.83 µM.

B2: CYP75A31 (Solanum lycopersicum) (protein)
chain: MALRINELFVAAIIYIIVHIIISKLITTVRERGRRLPLPPGPTGWPVIGALPLLGSMPHVALAKMAKKYGPIMYLKVGTCGMVVASTPNAAKAFLKTLDINFSNRPPNAGATHLAYNAQDMVFAPYGPRWKLLRKLSNLHMLGGKALENWANVRANELGHMLKSMFDASQDGECVVIADVLTFAMANMIGQVMLSKRVFVEKGVEVNEFKNMVVELMTVAGYFNIGDFIPKLAWMDIQGIEKGMKNLHKKFDDLLTKMFDEHEATSNERKENPDFLDVVMANRDNSEGERLSTTNIKALLLNLFTAGTDTSSSVIEWALAEMMKNPKIFKKAQQEMDQVIGKNRRLIESDIPNLPYLRAICKETFRKHPSTPLNLPRVSSEPCTVDGYYIPKNTRLSVNIWAIGRDPDVWENPLEFTPERFLSGKNAKIEPRGNDFELIPFGAGRRICAGTRMGIVVVEYILGTLVHSFDWKLPNNVIDINMEESFGLALQKAVPLEAMVTPRLSLDVYRC
Regarding B2, the Km (ATR1 reductase) is 1.20 µM.
